Test results reported in patent US20220160843A1 (priority 2019, published 2022).

B1: GN147: Modified GN3, amino acid substitutions (R101D, R117H), SEQ ID NO: 5 (protein)
chain: MRTSQRGLSLIKSFEGLRLQAYQDSVGVWTIGYGTTRGVKAGMKISKDQAERMLLNDVQRFEPEVERLIKVPLNQDQWDALMSFTYNLGAANLESSTLRDLLNAGNYAAAAEQFPHWNKAGGQVLAGLTRRRAAERELFLGAA
B2: GN92: Modified GN4, N-terminal peptide KFFKFFKFFK with linker, SEQ ID NO: 7 (protein)
chain: KFFKFFKFFKAGAGAGAGAGAGAGAGASMRTSQRGIDLIKSFEGLRLSAYQDSVGVWTIGYGTTRGVTRYMTITVEQAERMLSNDIQRFEPELDRLAKVPLNQNQWDALMSFVYNLGAANLASSTLLKLLNKGDYQGAADQFPRWVNAGGKRLDGLVKRRAAERALFLEPLS
B3: GN4: Native lysin, YP_002284361.1/Lysozyme, SEQ ID NO: 3; first disclosed in WO/2017/049233 (protein)
chain: MRTSQRGIDLIKSFEGLRLSAYQDSVGVWTIGYGTTRGVTRYMTITVEQAERMLSNDIQRFEPELDRLAKVPLNQNQWDALMSFVYNLGAANLASSTLLKLLNKGDYQGAADQFPRWVNAGGKRLDGLVKRRAAERALFLEPLS
modifications: Pseudomonas phage PAJU2
B4: GN37: Native lysin, WP_014102102.1/VanY, SEQ ID NO: 12; first disclosed in WO/2017/049233 (protein, listed as Micavibrio aeruginosavorus)
chain: MTYTLSKRSLDNLKGVHPDLVAVVHRAIQLTPVDFAVIEGLRSVSRQKELVAAGASKTMNSRHLTGHAVDLAAYVNGIRWDWPLYDAIAVAVKAAAKELGVAIVWGGDWTTFKDGPHFELDRSKYR

How the values were obtained:
[1] = system: P. aeruginosa strain ATCC 17647; assay: Minimal Biofilm Eradicating Concentration (MBEC), Calgary Biofilm Device; format: cell-based, Pseudomonas aeruginosa; settings: 24 h biofilm, 24 h treatment; minimum concentration removing >95% of biofilm biomass (crystal violet)
From the text: All samples were examined in triplicate.

[2] = system: P. aeruginosa; assay: Time-kill assay of GN lysin activity; format: cell-based, Pseudomonas aeruginosa; settings: lysin 10 μg/mL, T = 0 7.8; for Log10 CFU/mL T = 3 hr: buffer control 7.2, limit of detection 3.7; for Log10 CFU/mL T = l hr: buffer control 7.7
Experimental: All treatments were incubated at 37° C. with aeration.

[3] = system: carbapenem-resistant clinical strain, WC-452; assay: Checkerboard assay to examine synergy with antibiotics in CAA/HuS; format: cell-based, P. aeruginosa; settings: for FICI, Amikacin: lysin + amikacin; for FICI, Azithromycin: lysin + azithromycin; for FICI, Aztreonam: lysin + aztreonam; for FICI, Ciprofloxacin: lysin + ciprofloxacin; for FICI, Colistin: lysin + colistin; for FICI, Fosfomycin: lysin + fosfomycin; for FICI, Gentamicin: lysin + gentamicin; for FICI, Imipenem: lysin + imipenem; for FICI, Meropenem: lysin + meropenem; for FICI, Piperacillin: lysin + piperacillin; for FICI, Rifampicin: lysin + rifampicin; for FICI, Tobramycin: lysin + tobramycin
Experimental: Fractional inhibitor concentration index (FICI) values were determined for all combinations; values of <0.5 indicate synergy.
The checkerboard assays is based on a modification of the CLSI method for MIC determination by broth microdilution (26, 29). Checkerboards were constructed by first preparing columns of a 96-well polypropylene microtiter plate, in which each well had the same amount of antibiotic diluted 2-fold along the horizontal axis. […] Summation fractional inhibitory concentrations (ΣFICs) were calculated for each drug and the minimum ΣFIC value (ΣFICmin) was used to determine synergy. ΣFICs were calculated as follows: ΣFIC=FIC A+FIC B, where FIC A is the MIC of each antibiotic in the combination/MIC of each antibiotic alone, and FIC B is the MIC of each GN lysin in the combination/MIC of each GN lysin alone. The combination is considered synergistic when the ΣFIC is ≤0.5, strongly additive when the ΣFIC is >0.5 to <1, additive with the ΣFIC is 1−<2, and antagonistic when the ΣFIC is ≥2.

[4] = system: P. aeruginosa; assay: Minimal inhibitory concentration (MIC), modified CLSI broth microdilution in CAA or CAA/HuS; format: cell-based, Pseudomonas aeruginosa; settings: for MIC (μg/mL) in CAA: CAA media; for MIC (μg/mL in CAA/HuS) / MIC value in CAA/HuS: CAA supplemented with 25% human serum
[5] = CAA/HuS, ‡ indicates bactericidal activity
[6] = HEPES buffer, ‡ indicates bactericidal activity

Molecule | MBEC [1] [µg/mL] | Log10 CFU/mL T = 3 hr [2, 5] | Log10 CFU/mL T = l hr ([2]; CAA/HuS) [Log10 CFU/mL] | Log10 CFU/mL T = 3 hr [2, 6] | Log10 CFU/mL T = l hr [2, 6] | synergy with antibiotics in the checkerboard assay [3] | FICI, Amikacin [3] | FICI, Azithromycin [3] | FICI, Aztreonam [3] | FICI, Ciprofloxacin [3] | FICI, Colistin [3] | FICI, Fosfomycin [3] | FICI, Gentamicin [3] | FICI, Imipenem [3] | FICI, Piperacillin [3] | FICI, Rifampicin [3] | FICI, Tobramycin [3] | MIC (μg/mL) in CAA [4] [µg/mL] | MIC (μg/mL in CAA/HuS) [4] [µg/mL] | MIC value in CAA/HuS [4] [µg/mL] | further results
B1 | 0.25 | 4.2‡ Log10 CFU/mL | 6.5 | <3.7‡ Log10 CFU/mL | <3.7‡ Log10 CFU/mL | synergize with a range of antibiotics | 0.375 | 0.250 | 0.188 | 0.281 | 0.188 | 0.250 | 0.375 | 0.375 | 0.188 | 0.281 | 0.5 | 2 | 4 | 4 | FICI, Meropenem [3]: 0.375
B2 | 0.5 | <3.7‡ Log10 CFU/mL | 6.2 | <3.7‡ Log10 CFU/mL | 5.7 Log10 CFU/mL | synergize with a range of antibiotics | 0.375 | 0.063 | 0.188 | 0.281 | 0.094 | 0.500 | 0.375 | 0.125 | 0.500 | 0.094 | 0.500 | 32 | 4 | 4 | FICI, Meropenem [3]: 0.375
B3 | 1 | <3.7‡ Log10 CFU/mL | 6.0 | <3.7‡ Log10 CFU/mL | 5.7 Log10 CFU/mL | synergize with a range of antibiotics | 0.531 | 0.094 | 0.156 | 0.250 | 0.156 | 0.250 | 0.375 | 0.125 | 0.313 | 0.156 | 0.375 | 64 | 16 | 16 | –
B4 | 0.25 | <3.7‡ Log10 CFU/mL | 6.2 | <3.7‡ Log10 CFU/mL | 6.3 Log10 CFU/mL | synergize with a range of antibiotics | 0.125 | 0.188 | 0.531 | 0.281 | 0.156 | 0.313 | 0.313 | 0.313 | 0.375 | 0.281 | 0.156 | >128 | 32 | 32 | FICI, Meropenem [3]: 0.500
